In patent US20040248211A1, “ICAM-related protein” (priority 1992, published 2004):

B1: ICR-1.1: anti-ICAM-R monoclonal antibody, IgG2a, domain 1, ATCC HB 11053 (antibody, V domains shown)
VH: QVQLQQSGAELAKPGASVKMSCKASGYTFTVYWMHWVKQRPGQGLEWIGYINPNTDYTEYNQRFQDKATLTADKSSSTAYMQLSSLTSEDSAVYYCARWGGNSYGLDYWGQGTSVTVSS
VL: QIVLTQSPALMSASPGEKVTMTCSASSSVSYIYWYQQKPRSSPKPWIYLTSNLASGVPARFSGSGSGASYSLTISIMEAEDAATYYCQQWKSIPLTFGAGTKLELK
B2: ICR-8.1: anti-ICAM-R monoclonal antibody, IgG1, domain 1, ATCC HB 11232 (antibody, V domains shown)
VH: EIQLQQTGPELVKPGASVKISCKASGYSFTDCIILWVKQSHGKGLEWIGKINPYFGTTTYNLKFKGKATLTVDKSSSTAHMQLNSLTSEDSAVYYCARKEAYPDAMDYWGQGTSVTVSS
VL: DAVMTQTPLSLPVSLGDQASISCRSSQSLVHSNGDTYLHWYLQKPGQSPQLLIYKVSNRFSGVPDRFSGSGSGTDFTLKLSRVEAEDLGVYFCSQSTHVPYTFGGGTKLEIK

What was measured:
resting lymphocytes = test: Restoration of anti-CD3 proliferation by IL-2; format: cell-based; conditions: human rIL-2 30 U/ml
Experimental: Human PBL were fractionated and incubated on immobiized monoclonal antibodies as described in Section I above. The cells were collected, washed and replated on anti-CD3 either in the presence or absence of human rIL-2 at 30 U/ml.

PBMC [1] = test: Anti-CD3 stimulated PBMC aggregation; format: cell-based, human; conditions: immobilized antibody
PBMC [2] = test: PBMC activation markers, immobilized antibody plus low dose anti-CD3; format: cell-based, human; conditions: immobilized antibody 10 μg/well plus anti-CD3 0.025 μg/well
Experimental: Ten μg of anti-ICAM-R monoclonal antibodies ICR-1.1 or ICR-4.2 (or control monoclonal antibodies to HLA Class I; Serotec, Oxford, England) were added per well of 96-well flat bottom tissue culture plates either in the presence or absence of anti-CD3 antibody initially added at 0.025 μg/well and washed to remove unbound antibody. Freshly obtained PBMC were immediately added (2×10^5 cells/well). The cells were then incubated for a total of either 16 hours or 3 days at which time the cells were removed and washed 2 times in ice cold FACS buffer. Two×10^5 cells were then resuspended in 50 μl ice cold FACS buffer, and 5 μl of FITC-conjugated anti-CD69, anti-transferrin receptor, anti-IL-2 receptor antibody or anti-FITC conjugated control Ig was added. The cells were incubated at 4° C. for 30 minutes and then washed 2 times in 0.5 ml ice cold FACS buffer. After the final wash the cells were resuspended in 0.5 ml FACS buffer and fluorescence determined by FACScan analysis. […] The effect was more pronounced with antibody ICR-1.1. Similar results were also obtained after 16 hours in culture.

[3] = tested on: cell lines which express ICAM-R; test: Homotypic aggregation assay, cell line panel; format: cell-based, human; conditions: presence and absence of PMA
Experimental: In order to determine whether ICAM-R is involved in homotypic cell adhesion, aggregation assays were performed with a panel of cell lines which express ICAM-R including T lymphoblastoid cell lines (SupT1, CEM, Molt 4, Hut 78, Jurkat, SKW3), B lymphoblastoid cells lines (Jijoye, Raji), monocytic cell lines (U937, HL60), a myelogenous cell line (KG-1) and the erythroleukemia cell line K562. To determine the function of the ICAM-R molecule, the cells were incubated with various antibodies before aggregation was assayed. Anti-ICAM-R supernatants produced by hybridomas ICR-2.1, ICR-1.1, ICR-4.2, and ICR-3.1 were used as well as antibody preparations known to block aggregation through a β2 integrin pathway: TS1/18 (ATCC HB203) specific for the CD18 molecule, the β-subunit of LFA-1; TS1/22 (ATCC HB202) specific for the CD11a molecule, the α-chain of LFA-1; and LM2/1 (ATCC HB204) specific for the CD11b molecule, the α-subunit of MAC-1. Purified anti-ICAM-1 antibody and hybridoma supernatant directed against the a-chain of the VLA-4 molecule (hybridoma clone 163H, Michael Longenecker, Alberta, Canada) were used as controls.
Aggregation assays were done in duplicate, with and without addition of PMA (50 ng/ml). 3×10^5 cells in RPMI 1640 medium with 10% fetal calf serum were added in a flat-bottomed 96-well microtest plate. […]

human basophils = test: Basophil histamine release; format: cell-based; conditions: added simultaneously with anti-IgE 0.01 μg/ml
Excerpt: Basophils were obtained at low purity by dextran sedimentation of erythrocytes in EDTA-anti-coagulated peripheral venous blood, at slightly enriched percentages from mononuclear cell layers of density gradient Percoll centrifugation preparations, and at high purity (>70%) from leukophoresis packs following clutriation and density gradient centrifugation. In the assays, polyclonal goat anti-human IgE and ICAM-R monoclonals antibodies ICR-1.1, ICR-2.1, ICR-4.2 and ICR-8.1 were used alone or in combination. The […] was used to induce histamine release which was quantitated using an automated fluorometric assay after a 45 minute incubation with secretagogue. LTC4 production was measured by radioimmunoassay as previously described in Schleimer et al., J. Immunol., 143:1310-1317 (1989), while IL-4 in cell supernatants was assayed using the IL-4 Quantikine ELSA kit (R&D Systems, Minneapolis, Minn.). Basophil adhesion to unstimulated or IL-1 treated monolayers of human umbilical vein endothelial cells was examined as previously described in Bochner et al., J. Clin. Invest., 81: 1355-1360 (1988) and Bochner et al., J. Immunol., 142: 3180-3186 (1989), in the presence or absence of ICR-2.1 monoclonal antibody. […]

Molecule | proliferative response to anti-CD3 after prepulse, with added IL-2 (resting lymphocytes) | inhibition of anti-CD3 stimulated aggregation (PBMC [1]) | PBMC activation marker expression after 16 hours (PBMC [2]) | PBMC activation marker expression after 3 days (PBMC [2]) | stimulation of homotypic cell-cell aggregation [3] | anti-IgE-induced histamine release (human basophils)
B1 | completely restored proliferative responses | ~100% | induced expression of CD69, but not the transferrin receptor | significant upregulation of both the transferrin and IL-2 receptors | stimulated homotypic cell-cell aggregation | –
B2 | – | – | – | – | – | neither ICR-8.1 nor the domain 2-specific monoclonal antibody ICR-4.2 had any significant potentiating activity
